Experimental data as given in ChEMBL document CHEMBL4706636, “Determining Essential Requirements for Fluorophore Selection in Various Fluorescence Applications Taking Advantage of Diverse Structure-Fluorescence Information of Chromone Derivatives” (J Med Chem, 2021).

Tests used:
[1] = tested on: CCCc1coc2cc(NC(=O)C(N)CCCCN)ccc2c1=O; assay: (§1) Substrate activity at trypsin (unknown origin) by fluorescent biochemical assay; format: protein assay; conditions: Homo sapiens
[2] = tested on: CCCc1coc2cc(NC(=O)C(N)CCCCN)c(OC)cc2c1=O; assay: as §1; format: protein assay; conditions: Homo sapiens

Substance: Trypsin (Homo sapiens) (from UniProt P07477+P07478+P35030)
- Km [1]: 47.6 µM
- Km [2]: 30.3 µM
